Test results from the supplement of paper PMC7877785.
± gives the uncertainty stated by the source.

Assay: self-splicing fitness, log relative to wild type (ln ratio); higher = more splicing; Tetrahymena group I intron in knt gene, E. coli kanamycin selection, DiMSum; sequences stand for … in CUCUCU…GGAGGGAAAAGUUAUCAGGCAUGCACCUGGUAGCUAGUCUUUAAACCAAUAGAUUGCAUCGGUUUAAAAGGCAAGACCGUCAAAUUGCGGGAAAGGGGUCAACAGCCGUUCAGUACCAAGUCUCAGGGGAAACUUUGAGAUGGCCUUGCAAAGGGUAUGGUAAUAAGCUGACGGACAUGGUCCUAACCACGCAGCCAAGUCCUAAGUCAACAGAUCUUCUGUUGAUAUGGAUGCAGUUCACAGACUAAAUGUCGGUCGGGGAAGAUGUAUUCUUCUCAUAAGAUAUAGUCGGACCUCUCCUUAAUGGGAGCUAGCGGAUGAAGUGAUGCAACACUGGAGCCGCUGGGAACUAAUUUGUAUGCGAAAGUAUAUUGAUUAGUUUUGGAGUACUCGUGGUCG
Method in brief: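 Pooled colonies went to amplicon sequencing on an Illumina HiSeq 2500 after six replicate transformations. The plates were LB agar with 100 μg/mL carbenicillin, 50 μM IPTG and 0.2% rhamnose, with or without 25 μg/mL kanamycin, incubated overnight at 37°C or 30°C. The E. coli BL21(DE3) library had all eight P1ex-region intron nucleotides randomised, the intron placed in the knt kanamycin-resistance gene on pET-22b(+). DiMSum fitness is the error-weighted combination of replicate fold changes, kanamycin against none, normalised to wild type.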

Sequence	self-splicing fitness (ln) (30 °C)	self-splicing fitness (ln) (37 °C)
CGGAAGCAAUAUUACGUAUG	-1.49 ± 0.069	-0.904 ± 0.083
CGGAAGCAAUAUUACGUGAC	-1.6 ± 0.16	-2.12 ± 0.35
CGGAAGCAAUAUUACGUGCA	-3.23 ± 0.23	-0.628 ± 0.13
CGGAAGCAAUAUUACGUGCG	-1.64 ± 0.095	-1.05 ± 0.14
CGGAAGCAAUAUUACGUUCC	-2.32 ± 0.48	
CGGAAGCAAUAUUACGUUCU	-1.91 ± 0.14	-0.77 ± 0.14
CGGAAGCAAUAUUACGUUGU	-3.82 ± 0.22	-2.88 ± 0.24
CGGAAGCAAUAUUACGUUUA	-3.07 ± 0.24	-2.06 ± 0.17
CGGCAGCAAUAUUACGAAAA	-2.23 ± 0.26	-2.21 ± 0.37
CGGCAGCAAUAUUACGAACG	-1.11 ± 0.11	0.693 ± 0.15
CGGCAGCAAUAUUACGACUC	-0.739 ± 0.097	-0.759 ± 0.1
CGGCAGCAAUAUUACGAUAC	-3.21 ± 0.26	-2.89 ± 0.31
CGGCAGCAAUAUUACGAUAG	-0.0988 ± 0.079	-0.126 ± 0.086
CGGCAGCAAUAUUACGAUGA	-1.21 ± 0.095	-1.21 ± 0.12
CGGCAGCAAUAUUACGAUUC	-2.62 ± 0.17	-2.3 ± 0.19
CGGCAGCAAUAUUACGCAAC		-2.1 ± 0.26
CGGCAGCAAUAUUACGCAAU	-3.47 ± 0.2	-1.77 ± 0.19
CGGCAGCAAUAUUACGCCAA	-1.61 ± 0.15	-0.921 ± 0.13
CGGCAGCAAUAUUACGCCCG	-2.32 ± 0.47	
CGGCAGCAAUAUUACGCCUG	-0.88 ± 0.24	-1.89 ± 0.23
CGGCAGCAAUAUUACGCGAG	-2.86 ± 0.14	-2.37 ± 0.14

Sequence	self-splicing fitness (ln) (30 °C)	self-splicing fitness (ln) (37 °C)
CGGCAGCAAUAUUACGCGGA		-2.7 ± 0.3
CGGCAGCAAUAUUACGCGUU	-4.11 ± 0.2	-2.75 ± 0.18
CGGCAGCAAUAUUACGCUAA	-1.59 ± 0.1	-2.03 ± 0.15
CGGCAGCAAUAUUACGGAGG	-1.2 ± 0.086	-0.0971 ± 0.11
CGGCAGCAAUAUUACGGAGU	-3.46 ± 0.27	-2.33 ± 0.2
CGGCAGCAAUAUUACGGAUA	-3.38 ± 0.22	-2.39 ± 0.18
CGGCAGCAAUAUUACGGCUA	-0.121 ± 0.07	0.407 ± 0.096
CGGCAGCAAUAUUACGGCUG	-3.69 ± 0.47	-2.23 ± 0.27
CGGCAGCAAUAUUACGGGCA	-2.31 ± 0.26	-0.644 ± 0.13
CGGCAGCAAUAUUACGUGAG	-0.694 ± 0.041	-0.055 ± 0.069
CGGCAGCAAUAUUACGUGGA	-2.73 ± 0.26	-1.72 ± 0.27
CGGCAGCAAUAUUACGUUUG	-1.58 ± 0.069	-0.243 ± 0.079
CGGGAGCAAUAUUACGAGAG	-3.34 ± 0.26	-3.18 ± 0.32
CGGGAGCAAUAUUACGAGUC		-1.07 ± 0.26
CGGGAGCAAUAUUACGCGGG	-4.1 ± 0.37	-2.83 ± 0.3
CGGGAGCAAUAUUACGGAAA	-3.53 ± 0.29	
CGGGAGCAAUAUUACGGGAU	-3.37 ± 0.34	
CGGGAGCAAUAUUACGGUCC		-2.32 ± 0.24
CGGGAGCAAUAUUACGGUUC	-3.39 ± 0.25	-1.95 ± 0.35
CGGGAGCAAUAUUACGUAAU		-1.95 ± 0.28
